# Results published in US20260001928A1 (CORTERIA PHARMACEUTICALS, priority 2022, published 2026).
# *1 amine or outer side, *2 acyl side, *3 side chain or, on linkers, in order; H or OH if unused. Primed or numbered codes have the meaning given here. Where no end group is shown, it is not given here. Side-chain parts run from the residue outwards. [ ]: non-standard residue; d: D form. The star is where a group is joined. Thp′ = 4-amino-tetrahydro-2H-pyran-4-yl-acetic acid, O=C(CC1(N[*:1])CCOCC1)[*:2]; C18 diacid = O=C(O)CCCCCCCCCCCCCCCCC(=O)*; C16 diacid = O=C(O)CCCCCCCCCCCCCCC(=O)*; γGlu = O=C(O)[C@H](CCC(=O)[*:2])N[*:1]; NMeI = CC[C@H](C)[C@H](NC)C(=O)O; Api = NC1(C(=O)O)CCNCC1; Abu = CC[C@H](N)C(=O)O; AEEA = NCCOCCOCC(=O)O; Aib = CC(C)(N)C(=O)O
# T1: CRF1R receptor (UniProt P34998 24-415, limits assumed)
# T1 sequence (looked up): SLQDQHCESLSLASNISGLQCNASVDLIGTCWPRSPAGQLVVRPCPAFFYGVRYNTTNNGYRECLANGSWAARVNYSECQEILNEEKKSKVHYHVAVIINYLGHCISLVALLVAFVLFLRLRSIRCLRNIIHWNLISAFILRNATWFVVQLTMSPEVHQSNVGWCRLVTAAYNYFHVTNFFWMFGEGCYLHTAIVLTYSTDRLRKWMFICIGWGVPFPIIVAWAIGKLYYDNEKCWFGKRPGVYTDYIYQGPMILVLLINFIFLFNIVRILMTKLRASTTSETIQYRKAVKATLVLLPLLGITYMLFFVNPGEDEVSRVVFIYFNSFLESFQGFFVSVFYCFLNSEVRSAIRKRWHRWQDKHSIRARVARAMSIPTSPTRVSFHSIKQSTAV
# B1: SEQ ID NO 138 (peptide)
# peptide: [NMeI]VLSLD[dV]PIKLK([γGlu-C18 diacid])KILLEQEKQKKQREQAETNAQILAQV-NH2
# modifications: N-terminus assumed
# SMILES: CC[C@H](C)[C@H](NC)C(=O)N[C@H](C(=O)N[C@@H](CC(C)C)C(=O)N[C@@H](CO)C(=O)N[C@@H](CC(C)C)C(=O)N[C@@H](CC(=O)O)C(=O)N[C@@H](C(=O)N1CCC[C@H]1C(=O)N[C@H](C(=O)N[C@@H](CCCCN)C(=O)N[C@@H](CC(C)C)C(=O)N[C@@H](CCCCNC(=O)CC[C@H](NC(=O)CCCCCCCCCCCCCCCCC(=O)O)C(=O)O)C(=O)N[C@@H](CCCCN)C(=O)N[C@H](C(=O)N[C@@H](CC(C)C)C(=O)N[C@@H](CC(C)C)C(=O)N[C@@H](CCC(=O)O)C(=O)N[C@@H](CCC(N)=O)C(=O)N[C@@H](CCC(=O)O)C(=O)N[C@@H](CCCCN)C(=O)N[C@@H](CCC(N)=O)C(=O)N[C@@H](CCCCN)C(=O)N[C@@H](CCCCN)C(=O)N[C@@H](CCC(N)=O)C(=O)N[C@@H](CCCNC(=N)N)C(=O)N[C@@H](CCC(=O)O)C(=O)N[C@@H](CCC(N)=O)C(=O)N[C@@H](C)C(=O)N[C@@H](CCC(=O)O)C(=O)N[C@H](C(=O)N[C@@H](CC(N)=O)C(=O)N[C@@H](C)C(=O)N[C@@H](CCC(N)=O)C(=O)N[C@H](C(=O)N[C@@H](CC(C)C)C(=O)N[C@@H](C)C(=O)N[C@@H](CCC(N)=O)C(=O)N[C@H](C(N)=O)C(C)C)[C@@H](C)CC)[C@@H](C)O)[C@@H](C)CC)[C@@H](C)CC)C(C)C)C(C)C
# B2: SEQ ID NO 23 (peptide)
# peptide: [NMeI]VLSLD[dV]PIKLK([γGlu-C18 diacid])QILLKQERQKKQREQAEKN[Aib]QILEQV-NH2
# modifications: N-terminus assumed
# SMILES: CC[C@H](C)[C@H](NC)C(=O)N[C@H](C(=O)N[C@@H](CC(C)C)C(=O)N[C@@H](CO)C(=O)N[C@@H](CC(C)C)C(=O)N[C@@H](CC(=O)O)C(=O)N[C@@H](C(=O)N1CCC[C@H]1C(=O)N[C@H](C(=O)N[C@@H](CCCCN)C(=O)N[C@@H](CC(C)C)C(=O)N[C@@H](CCCCNC(=O)CC[C@H](NC(=O)CCCCCCCCCCCCCCCCC(=O)O)C(=O)O)C(=O)N[C@@H](CCC(N)=O)C(=O)N[C@H](C(=O)N[C@@H](CC(C)C)C(=O)N[C@@H](CC(C)C)C(=O)N[C@@H](CCCCN)C(=O)N[C@@H](CCC(N)=O)C(=O)N[C@@H](CCC(=O)O)C(=O)N[C@@H](CCCNC(=N)N)C(=O)N[C@@H](CCC(N)=O)C(=O)N[C@@H](CCCCN)C(=O)N[C@@H](CCCCN)C(=O)N[C@@H](CCC(N)=O)C(=O)N[C@@H](CCCNC(=N)N)C(=O)N[C@@H](CCC(=O)O)C(=O)N[C@@H](CCC(N)=O)C(=O)N[C@@H](C)C(=O)N[C@@H](CCC(=O)O)C(=O)N[C@@H](CCCCN)C(=O)N[C@@H](CC(N)=O)C(=O)NC(C)(C)C(=O)N[C@@H](CCC(N)=O)C(=O)N[C@H](C(=O)N[C@@H](CC(C)C)C(=O)N[C@@H](CCC(=O)O)C(=O)N[C@@H](CCC(N)=O)C(=O)N[C@H](C(N)=O)C(C)C)[C@@H](C)CC)[C@@H](C)CC)[C@@H](C)CC)C(C)C)C(C)C
# B3: SEQ ID NO 24 (peptide)
# peptide: [NMeI]VLSLD[dV]PIKLK([γGlu-C18 diacid])QILLKQERQKKQREQAEKNAQILEQV-NH2
# modifications: N-terminus assumed
# SMILES: CC[C@H](C)[C@H](NC)C(=O)N[C@H](C(=O)N[C@@H](CC(C)C)C(=O)N[C@@H](CO)C(=O)N[C@@H](CC(C)C)C(=O)N[C@@H](CC(=O)O)C(=O)N[C@@H](C(=O)N1CCC[C@H]1C(=O)N[C@H](C(=O)N[C@@H](CCCCN)C(=O)N[C@@H](CC(C)C)C(=O)N[C@@H](CCCCNC(=O)CC[C@H](NC(=O)CCCCCCCCCCCCCCCCC(=O)O)C(=O)O)C(=O)N[C@@H](CCC(N)=O)C(=O)N[C@H](C(=O)N[C@@H](CC(C)C)C(=O)N[C@@H](CC(C)C)C(=O)N[C@@H](CCCCN)C(=O)N[C@@H](CCC(N)=O)C(=O)N[C@@H](CCC(=O)O)C(=O)N[C@@H](CCCNC(=N)N)C(=O)N[C@@H](CCC(N)=O)C(=O)N[C@@H](CCCCN)C(=O)N[C@@H](CCCCN)C(=O)N[C@@H](CCC(N)=O)C(=O)N[C@@H](CCCNC(=N)N)C(=O)N[C@@H](CCC(=O)O)C(=O)N[C@@H](CCC(N)=O)C(=O)N[C@@H](C)C(=O)N[C@@H](CCC(=O)O)C(=O)N[C@@H](CCCCN)C(=O)N[C@@H](CC(N)=O)C(=O)N[C@@H](C)C(=O)N[C@@H](CCC(N)=O)C(=O)N[C@H](C(=O)N[C@@H](CC(C)C)C(=O)N[C@@H](CCC(=O)O)C(=O)N[C@@H](CCC(N)=O)C(=O)N[C@H](C(N)=O)C(C)C)[C@@H](C)CC)[C@@H](C)CC)[C@@H](C)CC)C(C)C)C(C)C
# B4: SEQ ID NO 117 (peptide)
# peptide: [NMeI]VLSLD[dV]PIKLK([AEEA-AEEA-γGlu-C18 diacid])KILLEQEKQKKQREQAETN[Api]QILAQV-NH2
# modifications: N-terminus assumed
# SMILES: CC[C@H](C)[C@H](NC)C(=O)N[C@H](C(=O)N[C@@H](CC(C)C)C(=O)N[C@@H](CO)C(=O)N[C@@H](CC(C)C)C(=O)N[C@@H](CC(=O)O)C(=O)N[C@@H](C(=O)N1CCC[C@H]1C(=O)N[C@H](C(=O)N[C@@H](CCCCN)C(=O)N[C@@H](CC(C)C)C(=O)N[C@@H](CCCCNC(=O)COCCOCCNC(=O)COCCOCCNC(=O)CC[C@H](NC(=O)CCCCCCCCCCCCCCCCC(=O)O)C(=O)O)C(=O)N[C@@H](CCCCN)C(=O)N[C@H](C(=O)N[C@@H](CC(C)C)C(=O)N[C@@H](CC(C)C)C(=O)N[C@@H](CCC(=O)O)C(=O)N[C@@H](CCC(N)=O)C(=O)N[C@@H](CCC(=O)O)C(=O)N[C@@H](CCCCN)C(=O)N[C@@H](CCC(N)=O)C(=O)N[C@@H](CCCCN)C(=O)N[C@@H](CCCCN)C(=O)N[C@@H](CCC(N)=O)C(=O)N[C@@H](CCCNC(=N)N)C(=O)N[C@@H](CCC(=O)O)C(=O)N[C@@H](CCC(N)=O)C(=O)N[C@@H](C)C(=O)N[C@@H](CCC(=O)O)C(=O)N[C@H](C(=O)N[C@@H](CC(N)=O)C(=O)NC1(C(=O)N[C@@H](CCC(N)=O)C(=O)N[C@H](C(=O)N[C@@H](CC(C)C)C(=O)N[C@@H](C)C(=O)N[C@@H](CCC(N)=O)C(=O)N[C@H](C(N)=O)C(C)C)[C@@H](C)CC)CCNCC1)[C@@H](C)O)[C@@H](C)CC)[C@@H](C)CC)C(C)C)C(C)C
# B5: SEQ ID NO 141 (peptide)
# peptide: [NMeI]VLSLD[dV]PIKLK([γGlu-C18 diacid])KILLEQEKQKKQREQAETN[Api]QILAQV-NH2
# modifications: N-terminus assumed
# SMILES: CC[C@H](C)[C@H](NC)C(=O)N[C@H](C(=O)N[C@@H](CC(C)C)C(=O)N[C@@H](CO)C(=O)N[C@@H](CC(C)C)C(=O)N[C@@H](CC(=O)O)C(=O)N[C@@H](C(=O)N1CCC[C@H]1C(=O)N[C@H](C(=O)N[C@@H](CCCCN)C(=O)N[C@@H](CC(C)C)C(=O)N[C@@H](CCCCNC(=O)CC[C@H](NC(=O)CCCCCCCCCCCCCCCCC(=O)O)C(=O)O)C(=O)N[C@@H](CCCCN)C(=O)N[C@H](C(=O)N[C@@H](CC(C)C)C(=O)N[C@@H](CC(C)C)C(=O)N[C@@H](CCC(=O)O)C(=O)N[C@@H](CCC(N)=O)C(=O)N[C@@H](CCC(=O)O)C(=O)N[C@@H](CCCCN)C(=O)N[C@@H](CCC(N)=O)C(=O)N[C@@H](CCCCN)C(=O)N[C@@H](CCCCN)C(=O)N[C@@H](CCC(N)=O)C(=O)N[C@@H](CCCNC(=N)N)C(=O)N[C@@H](CCC(=O)O)C(=O)N[C@@H](CCC(N)=O)C(=O)N[C@@H](C)C(=O)N[C@@H](CCC(=O)O)C(=O)N[C@H](C(=O)N[C@@H](CC(N)=O)C(=O)NC1(C(=O)N[C@@H](CCC(N)=O)C(=O)N[C@H](C(=O)N[C@@H](CC(C)C)C(=O)N[C@@H](C)C(=O)N[C@@H](CCC(N)=O)C(=O)N[C@H](C(N)=O)C(C)C)[C@@H](C)CC)CCNCC1)[C@@H](C)O)[C@@H](C)CC)[C@@H](C)CC)C(C)C)C(C)C
# B6: SEQ ID NO 139 (peptide)
# peptide: [NMeI]VLSLD[dV]PIKLK([γGlu-C18 diacid])KILLEQEKQKKQREQAETN[Abu]QILAQV-NH2
# modifications: N-terminus assumed
# SMILES: CC[C@H](NC(=O)[C@H](CC(N)=O)NC(=O)[C@@H](NC(=O)[C@H](CCC(=O)O)NC(=O)[C@H](C)NC(=O)[C@H](CCC(N)=O)NC(=O)[C@H](CCC(=O)O)NC(=O)[C@H](CCCNC(=N)N)NC(=O)[C@H](CCC(N)=O)NC(=O)[C@H](CCCCN)NC(=O)[C@H](CCCCN)NC(=O)[C@H](CCC(N)=O)NC(=O)[C@H](CCCCN)NC(=O)[C@H](CCC(=O)O)NC(=O)[C@H](CCC(N)=O)NC(=O)[C@H](CCC(=O)O)NC(=O)[C@H](CC(C)C)NC(=O)[C@H](CC(C)C)NC(=O)[C@@H](NC(=O)[C@H](CCCCN)NC(=O)[C@H](CCCCNC(=O)CC[C@H](NC(=O)CCCCCCCCCCCCCCCCC(=O)O)C(=O)O)NC(=O)[C@H](CC(C)C)NC(=O)[C@H](CCCCN)NC(=O)[C@@H](NC(=O)[C@@H]1CCCN1C(=O)[C@H](NC(=O)[C@H](CC(=O)O)NC(=O)[C@H](CC(C)C)NC(=O)[C@H](CO)NC(=O)[C@H](CC(C)C)NC(=O)[C@@H](NC(=O)[C@@H](NC)[C@@H](C)CC)C(C)C)C(C)C)[C@@H](C)CC)[C@@H](C)CC)[C@@H](C)O)C(=O)N[C@@H](CCC(N)=O)C(=O)N[C@H](C(=O)N[C@@H](CC(C)C)C(=O)N[C@@H](C)C(=O)N[C@@H](CCC(N)=O)C(=O)N[C@H](C(N)=O)C(C)C)[C@@H](C)CC
# Target: human corticotropin-releasing factor 2a (CRF2a receptor) (human), Q13324
# Sequence (Q13324 20-411): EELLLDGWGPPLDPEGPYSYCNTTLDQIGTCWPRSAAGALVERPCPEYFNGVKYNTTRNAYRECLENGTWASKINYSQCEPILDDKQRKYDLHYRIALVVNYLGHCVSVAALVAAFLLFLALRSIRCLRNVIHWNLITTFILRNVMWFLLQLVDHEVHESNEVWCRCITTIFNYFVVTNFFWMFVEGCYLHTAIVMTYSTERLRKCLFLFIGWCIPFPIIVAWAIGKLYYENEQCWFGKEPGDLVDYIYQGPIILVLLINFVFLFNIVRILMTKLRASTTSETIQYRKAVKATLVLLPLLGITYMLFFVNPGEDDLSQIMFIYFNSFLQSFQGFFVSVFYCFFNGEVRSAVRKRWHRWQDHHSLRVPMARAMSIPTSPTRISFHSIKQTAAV
# Experiment: cell-based or functional assay
row,Binder,EC50 [nM] (cAMP)
1,B1,0.05 nM
2,B2,0.33 nM
3,B3,0.04 nM
4,B4,0.63 nM
5,B5,0.16 nM
6,B6,0.05 nM
7,Ac-IVLSLD[dV]PIKLK([γGlu-C16 diacid])KILLEQEKQKKQREQAETN[Thp′]QILAQV-NH2 [SEQ ID NO 58],0.41 nM

# Target: T1, CRF1R receptor
# Experiment: cell-based or functional assay
Binder,Emax (% I),EC50
B1,10%,
B2,35%,
B3,37%,
B4,3%,
B5,32%,
B6,13%,
Ac-IVLSLD[dV]PIKLK([γGlu-C16 diacid])KILLEQEKQKKQREQAETN[Thp′]QILAQV-NH2 [SEQ ID NO 58],6%,> 250 nM
